Tests used:
LASV L protein (WT) [1] = target: T1, LASV L protein (WT) (Lassa virus Bantou 289, UniProt A0A3S8NV63 1-2217); test: EMSA; settings: protein: recombinant; tags: internal StrepII after residue 407, or C-terminal StrepII-His; label: 5' Cyanine3; single strand
LASV L protein (WT) [2] = target: T1, LASV L protein (WT); test: cryo-EM; PRE-[…]ON, 3.34 A; settings: protein: recombinant; tags: internal StrepII after residue 407, or C-terminal StrepII-His

Binder	binding result (LASV L protein (WT) [1])	binding result (LASV L protein (WT) [2])
CCACUGUGCG (ssRNA) [3' vRNA 1-10 nt]	binds	–
full promoter: 5' vRNA 0-19 / 3' vRNA 1-19 (structured_RNA) RNA 1: GCGCACCGGGGAUCCUAGGC RNA 2: GCCUAGGAUCCACUGUGCG	–	binds

Source: paper PMC8639829
